Values quoted from earlier work in patent publication US20100183645A1, “ACTIVE OR PASSIVE IMMUNIZATION AGAINST PROAPOPTOTIC NEUROTROPHINS FOR THE TREATMENT AND/OR PREVENTION OF NEURODEGENERATIVE DISEASES” (INSTITUT PASTEUR, priority 2003, published 2010).
No end group written: not given here.

Molecular target: T1, p75NTR (Homo sapiens, UniProt P08138)
T1 sequence (P08138 29-427): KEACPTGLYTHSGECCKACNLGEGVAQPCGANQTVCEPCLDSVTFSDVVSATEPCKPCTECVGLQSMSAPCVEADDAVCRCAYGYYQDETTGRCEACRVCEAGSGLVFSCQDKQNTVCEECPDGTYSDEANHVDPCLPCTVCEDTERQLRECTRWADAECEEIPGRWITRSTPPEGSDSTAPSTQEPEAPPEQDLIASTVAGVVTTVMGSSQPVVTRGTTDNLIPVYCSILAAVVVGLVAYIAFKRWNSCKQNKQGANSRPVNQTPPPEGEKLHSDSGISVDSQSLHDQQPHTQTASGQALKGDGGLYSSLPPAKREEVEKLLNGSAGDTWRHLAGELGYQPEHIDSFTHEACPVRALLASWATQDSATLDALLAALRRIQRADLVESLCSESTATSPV
Settings: Beglova et al, 2000; Saragovi et al, 2000, 2002; cited from earlier work

short cyclic peptide derived from an exposed loop of mature NGF (residues C30-C35): short cyclic peptide from an exposed loop of mature NGF, involved in NGF-p75NTR interactions (DIKGKE; also: cyclic peptide, ring closure not given here; UniProt P01139 151-156, looked up, fragment)
Blocking of neurotrophin binding to p75NTR: specifically block
